In patent US11866736B2, “Protein prostheses for mitochondrial diseases or conditions” (The General Hospital Corporation, priority 2015, dated 2024):

Tests used:
[1] = tested on: HeLa cells; experiment: Oxygen consumption rate (OCR), XF24 extracellular flux analyzer; format: cell-based, human; conditions: for increase in oxygen consumption: resistance to antimycin: 1 μM antimycin (complex III inhibitor); for increase in oxygen consumption of HeLa cells: doxycycline-inducible expression
Description: Oxygen consumption rates (OCR) of HeLa cells expressing 5 bacterial NOXes (untargeted and targeted to mitochondria) and Luciferase under the control of doxycycline (DOX) inducible promoter (TRE3G) were measured with the XF24 Extracellular Flux Analyzer (Seahorse Bioscience, manufactured in 2008). Cells were seeded at 30-40×10^3 cells per well in XF24 24-well cell culture microplates in 200 μl of DMEM (DMEM (US Biological, […]), 3.7 g/L NaHCO3 and 10% dialyzed FBS (Life Technologies, 26400-044) and were incubated at 37° C. in 5% CO2 incubator. Media was replaced the next day with 1 ml per well and doxycycline (final concentration -300 ng/ml, prepared in water) or water were added to the corresponding wells to induce protein expression. Twenty four hour later, media was replaced with 950 μL of the assay medium (no pyruvate DMEM (US Biological, […]), 15.9 mg/L phenol red, 10% dialyzed FBS (Life Technologies, 26400-044) and 25 mM HEPES-KOH, pH 7.4) and plates were introduced into the […] Extracellular Flux Analyzer for experimental measurements. Each measurement was performed over 4 min after a 2-min mix and a 2-min wait period. Basal measurements were collected 8 times and 4 measurements were collected after injection of oligomycin (final concentration 1 μM), followed by 4 measurements after addition of antimycin A (final concentration 1 μM) from the XF24 ports in 50 μL of the assay medium. Cells were seeded at 30-40×10^3 per well in XF24 24-well cell culture microplates in 200 μl of normal growth media (DMEM (US Biological, […]), 3.7 g/L NaHCO3 and 10% dialyzed FBS (Life Technologies, 26400-044)) and were incubated at 37° C. in 5% CO2 incubator. For all experiments the next day media was renewed with 1 ml per well and doxycycline (final concentration -300 ng/ml) or water were added. Twenty four hours later, media was changed to no pyruvate media (no pyruvate DMEM (US Biological, […]), 15.9 mg/L phenol red, 3.7 g/L NaHCO3 and 10% dialyzed FBS (Life Technologies, 26400-044)). Two hours later, media was replaced with 950 μL of the assay medium (no pyruvate DMEM (US Biological, […]), 15.9 mg/L phenol red, 10% dialyzed FBS (Invitrogen, 26400-044) and 25 mM HEPES-KOH, pH 7.4) and OCR was measured. Each measurement was performed over 4 min after a 2-min mix and a 2-min wait period. Basal measurements were collected 8 times and 4 measurements were collected after injection of each drug: antimycin A (final concentration 1 μM) or piericidin (final concentration 1 μM). Three measurements before and after addition of the drug were averaged and normalized by the cell number.

[2] = tested on: HeLa Tet3G cells; experiment: Cell proliferation assays: rescue of the proliferation defect induced by respiratory chain inhibitors (nuclei counting); format: cell-based, human; conditions: no pyruvate, doxycycline-inducible expression; for rescue of proliferation defect caused by piericidin: 1 μM piericidin
Description: Five hundred HeLa Tet3G NDI1, Luciferase, LbNOX or mitoLbNOX cells were seeded in 200 μl of DMEM (DMEM (US Biological, D9800), 3.7 g/L NaHCO3, 10% dialyzed FBS (Life Technologies, 26400-044)) per well in a black 96-well plate with clear bottom (Corning, 3904). Twenty four hours after seeding, media was exchanged to DMEM without pyruvate (DMEM (US Biological, D9802), 15.9 mg/L phenol red, 3.7 g/L NaHCO3, 10% dialyzed FBS (Life Technologies, 26400-044))±10 μg/ml chloramphenicol±30 ng/ml ethidium bromide±1 mM pyruvate±300 ng/ml doxycycline. After 0, 2, 3, 4, 5 and 6 days, media was aspirated and cells were fixed by adding 100 μl of 4% paraformaldehyde in PBS and incubating at room temperature for at least 30 min. Paraformaldehyde solution was aspirated and cells were stained with 200 μl of 1 μg/ml Hoechst 33345 in PBS. Plates were covered with sealing aluminum foil and stored at 4° C. before counting cells in each well with Molecular Dynamics IMAGEXPRESS® Ultra (see “Nuclei counting using Molecular Devices IMAGEXPRESS® Ultra,” below).
One thousand HeLa Tet3G NDI1, Luciferase, LbNOX or mitoLbNOX cells were seeded in 200 μl of DMEM (DMEM (US Biological, D9800), 3.7 g/L NaHCO3, 10% dialyzed FBS (Life Technologies, 26400-044)) per well in a black 96-well plate with clear bottom (Corning, 3904). Twenty four hours after seeding, 10 μl of 6 μg/ml doxycycline (300 ng/ml final concentration) or water was added to each well. Twenty four hours after addition of doxycycline, media was exchanged to DMEM without pyruvate (DMEM (US Biological, D9802), 15.9 mg/L phenol red, 3.7 g/L NaHCO3, 10% dialyzed FBS (Life Technologies, 26400-044)), ±1 μM piericidin, ±1 μM antimycin, ±1 mM pyruvate and ±300 ng/ml doxycycline. After 0, 1, 2, 3 and 4 days, media was aspirated and cells were fixed by adding 100 μl of 4% paraformaldehyde in PBS and incubating at room temperature for at least 30 min. Paraformaldehyde solution was aspirated and cells were stained with 200 μl of 1 μg/ml Hoechst 33345. Plates were covered with sealing aluminum foil and stored at 4° C. before counting cells in each well with Molecular Dynamics IMAGEXPRESS® Ultra (see “Nuclei counting using Molecular Devices IMAGEXPRESS® Ultra,” below).
Two thousand HeLa Tet3G Luciferase cells were seeded in 200 μl of DMEM (DMEM (US Biological, D9800), 3.7 g/L NaHCO3, 10% dialyzed FBS (Life Technologies, 26400-044)) per well in a black 96-well plate with clear bottom (Corning, 3904). Twenty four hours after seeding, media was exchanged to DMEM without pyruvate (DMEM (US Biological, D9802), 15.9 mg/L phenol red, 3.7 g/L NaHCO3, 10% dialyzed FBS (Life Technologies, 26400-044))±1 μM piericidin, ±indicated concentrations of pyruvate, lactate, malate, oxaloacetate, nicotinamide mononucleotide ([…]) or PJ34. After 3 days, media was aspirated and cells were fixed by adding 100 μl of 4% paraformaldehyde in PBS and incubating at room temperature for at least 30 min. Paraformaldehyde solution was aspirated and cells were stained with 200 μl of 1 μg/ml Hoechst 33345. Plates were covered with sealing aluminum foil and stored at 4° C. before counting cells in each well with Molecular Dynamics IMAGEXPRESS® Ultra (see “Nuclei counting using Molecular Devices IMAGEXPRESS® Ultra,” below).
Images of 96-well plates with fixed cells stained with Hoechst 33345 were collected using Molecular Devices IMAGEXPRESS® Micro XLS. Four images were taken to cover the whole well. Images were analyzed and nuclei number per well was counted using CellProfiler 2.0 image analysis software (Carpenter, et al., Genome Biol., 7:R100, 2006; and Kamentsky, et al., Bioinformatics, 27:1179, 2011). […]

Row | Molecule | increase in oxygen consumption: resistance to antimycin [1] | increase in oxygen consumption: resistance to piericidin ([1]; 1 μM piericidin (complex I inhibitor)) | increase in oxygen consumption of HeLa cells [1] [fold] | rescue of proliferation defect caused by ethidium bromide ([2]; 30 ng/ml ethidium bromide) | rescue of proliferation defect caused by antimycin ([2]; 1 μM antimycin) | rescue of proliferation defect caused by piericidin [2] | rescue of proliferation defect caused by chloramphenicol ([2]; 10 μg/ml chloramphenicol)
1 | LbNOX: water-forming NADH oxidase endogenous to Lactobacillus brevis; tested with C-terminal FLAG tag (protein, listed as Lactobacillus brevis, C-terminal FLAG tag) KVTVVGCTHAGTFAIKQILAEHPDAEVTVYERNDVISFLSCGIALYLGGKVADPQGLFYSSPEELQKLGANVQMNHNVLAIDPDQKTVTVEDLTNHAQTTESYDKLVMTSGSWPIVPKIPGIDSDRVKLCKNWAHAQALIEDAKEAKRITVIGAGYIGAELAEAYSTTGHDVTLIDAMARVMPKYFDADFTDVIEQDYRDHGVQLALGETVESFTDSATGLTIKTDKNSYETDLAILCIGFRPNTDLLKGKVDMAPNGAIITDDYMRSSNPDIFAAGDSAAVHYNPTHQNAYIPLATNAVRQGILVGKNLVKPTVKYMGTQSSSGLALYDRTIVSTGLTLAAAKQQGLNAEQVIVEDNYRPEFMPSTEPVLMSLVFDPDTHRILGGALMSKYDVSQSANTLSVCIQNENTIDDLAMVDMLFQPNFDRPFNYLNILAQAAQAKVAQSVNA | resistant | resistant | 1.6 | rescued completely | rescued completely | rescued completely | rescued completely
2 | TPNOX: NADPH-specific quintuple mutant (G159A/D177A/A178R/M179S/P184R) of LbNOX (protein) KVTVVGCTHAGTFAIKQILAEHPDAEVTVYERNDVISFLSCGIALYLGGKVADPQGLFYSSPEELQKLGANVQMNHNVLAIDPDQKTVTVEDLTNHAQTTESYDKLVMTSGSWPIVPKIPGIDSDRVKLCKNWAHAQALIEDAKEAKRITVIGAGYIAAELAEAYSTTGHDVTLIARSARVMRKYFDADFTDVIEQDYRDHGVQLALGETVESFTDSATGLTIKTDKNSYETDLAILCIGFRPNTDLLKGKVDMAPNGAIITDDYMRSSNPDIFAAGDSAAVHYNPTHQNAYIPLATNAVRQGILVGKNLVKPTVKYMGTQSSSGLALYDRTIVSTGLTLAAAKQQGLNAEQVIVEDNYRPEFMPSTEPVLMSLVFDPDTHRILGGALMSKYDVSQSANTLSVCIQNENTIDDLAMVDMLFQPNFDRPFNYLNILAQAAQAKVAQSVNA | resistant |  | 1.7 |  |  | not | 
